We go through one substance from publication PMC3085272.

In the assay the target is Rac1-GMPPNP (UniProt P63000). The assay is described as follows: equilibrium dialysis. (In general: Equilibrium dialysis compares concentrations on both sides of a semipermeable membrane.)

On to “ΔWRC (VCA-deleted WRC, containing WAVE1(1-186)) (from UniProt Q7L576;Q9Y2A7;Q92558;Q9NYB9;Q8WUW1) (complex)”, for which the Kd (commonly the equilibrium constant for the complex coming apart) was 1000 to 2000 nM.
